Measurements: article PMC6640723 (2019)

Columns and labels:
[1] = biological target: gp140UG37 (ARP698, Polymun) (HIV-1 strain UG037); test: ELISA
[2] = biological target: recombinant gp41 (ARP680) (HIV-1); test: ELISA

B1: VHH 2E7 (VHH)
VHH: DVQLQESGGGLVQPGGSLRLSCAASGNIVSIDAAGWFRQAPGKQREPVATILTGGATNYADSVKGRFTISRDNAKNTVYLQMNSLKPEDTAVYYCYAPMIYYGGRYSDYWGQGTQVTVS
IC50 [1]: 0.9 nM
IC50 [2]: 3.2 nM
